Laboratory results as given in article PMC5458144 (2017).

Biological target: CRL4A-CRBN (Homo sapiens, UniProt Q96SW2)
Assay: TR-FRET

CRL4A-CRBN, sequence (Q96SW2 whole entry, chain 1 of 4): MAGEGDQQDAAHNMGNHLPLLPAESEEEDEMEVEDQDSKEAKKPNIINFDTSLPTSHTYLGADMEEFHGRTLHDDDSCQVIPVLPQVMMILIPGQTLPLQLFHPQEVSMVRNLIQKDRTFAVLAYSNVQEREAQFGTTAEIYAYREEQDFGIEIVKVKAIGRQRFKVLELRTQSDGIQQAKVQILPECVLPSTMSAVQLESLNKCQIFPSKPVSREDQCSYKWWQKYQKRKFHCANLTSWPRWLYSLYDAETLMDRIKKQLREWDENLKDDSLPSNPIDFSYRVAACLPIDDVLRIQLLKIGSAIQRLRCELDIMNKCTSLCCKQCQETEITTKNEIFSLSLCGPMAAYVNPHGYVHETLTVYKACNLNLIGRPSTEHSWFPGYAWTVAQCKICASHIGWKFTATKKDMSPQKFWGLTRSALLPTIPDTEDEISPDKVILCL
CRL4A-CRBN, sequence (Q16531 2-1140, chain 2 of 4, further chain): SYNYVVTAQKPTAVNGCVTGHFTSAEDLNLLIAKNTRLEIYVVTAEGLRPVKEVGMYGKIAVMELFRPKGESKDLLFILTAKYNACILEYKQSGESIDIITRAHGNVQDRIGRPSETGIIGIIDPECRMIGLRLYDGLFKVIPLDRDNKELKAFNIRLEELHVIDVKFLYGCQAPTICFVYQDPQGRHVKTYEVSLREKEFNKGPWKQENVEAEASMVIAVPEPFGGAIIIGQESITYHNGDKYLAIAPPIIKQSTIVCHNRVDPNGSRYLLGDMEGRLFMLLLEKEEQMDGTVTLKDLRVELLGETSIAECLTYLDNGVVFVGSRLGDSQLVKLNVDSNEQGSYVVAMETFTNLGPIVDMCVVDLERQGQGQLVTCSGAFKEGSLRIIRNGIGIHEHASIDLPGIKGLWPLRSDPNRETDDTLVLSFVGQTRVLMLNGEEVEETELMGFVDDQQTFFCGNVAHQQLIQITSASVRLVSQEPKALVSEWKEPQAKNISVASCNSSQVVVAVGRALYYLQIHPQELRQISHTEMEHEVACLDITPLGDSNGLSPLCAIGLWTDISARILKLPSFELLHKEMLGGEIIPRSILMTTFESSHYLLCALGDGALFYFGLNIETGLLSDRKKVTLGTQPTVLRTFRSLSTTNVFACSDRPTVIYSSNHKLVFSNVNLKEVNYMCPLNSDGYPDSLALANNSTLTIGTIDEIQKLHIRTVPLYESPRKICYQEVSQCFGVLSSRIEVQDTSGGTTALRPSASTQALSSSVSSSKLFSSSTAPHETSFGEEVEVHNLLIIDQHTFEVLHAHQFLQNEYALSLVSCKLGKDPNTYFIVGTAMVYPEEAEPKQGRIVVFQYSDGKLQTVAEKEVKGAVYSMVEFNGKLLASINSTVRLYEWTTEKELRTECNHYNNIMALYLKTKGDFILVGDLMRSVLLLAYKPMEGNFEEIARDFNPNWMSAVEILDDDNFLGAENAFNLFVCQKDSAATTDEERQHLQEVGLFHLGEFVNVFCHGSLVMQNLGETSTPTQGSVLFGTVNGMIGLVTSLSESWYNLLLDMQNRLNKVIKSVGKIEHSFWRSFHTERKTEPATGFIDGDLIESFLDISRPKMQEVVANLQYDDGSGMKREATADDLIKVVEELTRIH
CRL4A-CRBN, sequence (Q13619 whole entry, chain 3 of 4, further chain): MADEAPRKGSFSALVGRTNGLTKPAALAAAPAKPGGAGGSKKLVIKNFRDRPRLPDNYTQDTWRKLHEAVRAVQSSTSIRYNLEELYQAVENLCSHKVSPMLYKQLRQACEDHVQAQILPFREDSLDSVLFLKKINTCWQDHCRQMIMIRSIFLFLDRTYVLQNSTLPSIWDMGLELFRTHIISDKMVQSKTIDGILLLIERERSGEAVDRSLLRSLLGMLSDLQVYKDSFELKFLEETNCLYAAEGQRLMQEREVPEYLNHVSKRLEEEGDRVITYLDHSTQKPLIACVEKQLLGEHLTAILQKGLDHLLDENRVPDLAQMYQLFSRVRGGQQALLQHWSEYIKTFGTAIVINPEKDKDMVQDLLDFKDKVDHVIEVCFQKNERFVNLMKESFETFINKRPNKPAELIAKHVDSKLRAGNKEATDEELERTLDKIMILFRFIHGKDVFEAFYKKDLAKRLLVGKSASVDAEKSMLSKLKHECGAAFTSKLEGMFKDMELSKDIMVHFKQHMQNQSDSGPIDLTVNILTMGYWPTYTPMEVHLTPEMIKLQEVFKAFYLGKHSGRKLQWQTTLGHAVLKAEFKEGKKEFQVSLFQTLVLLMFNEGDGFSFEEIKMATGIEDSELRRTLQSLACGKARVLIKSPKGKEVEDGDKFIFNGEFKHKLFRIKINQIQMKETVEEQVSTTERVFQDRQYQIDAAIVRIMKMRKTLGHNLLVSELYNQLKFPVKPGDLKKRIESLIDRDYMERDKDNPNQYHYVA
CRL4A-CRBN, sequence (P62877 2-108, chain 4 of 4, further chain): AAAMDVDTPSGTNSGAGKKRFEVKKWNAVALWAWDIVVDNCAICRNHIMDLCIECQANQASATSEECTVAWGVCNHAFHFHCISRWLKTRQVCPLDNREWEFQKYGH

Kd: 107 nM
B1: ZFP91 (protein)
chain: PGETEEPRPPEQQDQEGGEAAKAAPEEPQQRPPEAVAAAPAGTTSSRVLRGGRDRGRAAAAAAAAAVSRRRKAEYPRRRRSSPSARPPDVPGQQPQAAKSPSPVQGKKSPRLLCIEKVTTDKDPKEEKEEEDDSALPQEVSIAASRPSRGWRSSRTSVSRHRDTENTRSSRSKTGSLQLICKSEPNTDQLDYDVGEEHQSPGGISSEEEEEEEEEMLISEEEIPFKDDPRDETYKPHLERETPKPRRKSGKVKEEKEKKEIKVEVEVEVKEEENEIREDEEPPRKRGRRRKDDKSPRLPKRRKKPPIQYVRCEMEGCGTVLAHPRYLQHHIKYQHLLKKKYVCPHPSCGRLFRLQKQLLRHAKHHTDQRDYICEYCARAFKSSHNLAVHRMIHTGEKPLQCEICGFTCRQKASLNWHMKKHDADSFYQFSCNICGKKFEKKDSVVAHKAKSHPEVLIAEALAANAGALITSTDILGTNPESLTQPSDGQGLPLLPEPLGNSTSGECLLLEAEGMSKSYCSGTERVSLMADGKIFVGSGSSGGTEGLVMNSDILGATTEVLIEDSDSAGP
modifications: lenalidomide
